B1: Venus-His-Sumo-tagged talin R4–R8 domain (domain or fragment, mouse, UniProt P26039 913-1655, looked up)
chain: LVQRLEHAAKQAAASATQTIAAAQHAASAPKASAGPQPLLVQSCKAVAEQIPLLVQGVRGSQAQPDSPSAQLALIAASQSFLQPGGKMVAAAKASVPTIQDQASAMQLSQCAKNLGTALAELRTAAQKAQEACGPLEMDSALSVVQNLEKDLQEIKAAARDGKLKPLPGETMEKCTQDLGNSTKAVSSAIAKLLGEIAQGNENYAGIAARDVAGGLRSLAQAARGVAALTSDPAVQAIVLDTASDVLDKASSLIEEAKKASGHPGDPESQQRLAQVAKAVTQALNRCVSCLPGQRDVDNALRAVGDASKRLLSDSLPPSTGTFQEAQSRLNEAAAGLNQAATELVQASRGTPQDLARASGRFGQDFSTFLEAGVEMAGQAPSQEDRAQVVSNLKGISMSSSKLLLAAKALSTDPASPNLKSQLAAAARAVTDSINQLITMCTQQAPGQKECDNALRQLETVRELLENPVQPINDMSYFGCLDSVMENSKVLGEAMTGISQNAKNGNLPEFGDAIATASKALCGFTEAAAQAAYLVGVSDPNSQAGQQGLVEPTQFARANQAIQMACQSLGEPGCTQAQVLSAATIVAKHTSALCNSCRLASARTANPTAKRQFVQSAKEVANSTANLVKTIKALDGDFTEENRAQCRAATAPLLEAVDNLSAFASNPEFSSVPAQISPEGRAAMEPIVISAKTMLESAGGLIQTARALAVNPRDPPRWSVLAGHSRTVSDSIKKLITSMRDKA

The target of test [1] is B1. The experiment in a line: pull-down.
For test [2], the target named is T1, recombinant FL-Kank2 (mouse, UniProt Q8BX02 1-843).
T1 sequence (looked up): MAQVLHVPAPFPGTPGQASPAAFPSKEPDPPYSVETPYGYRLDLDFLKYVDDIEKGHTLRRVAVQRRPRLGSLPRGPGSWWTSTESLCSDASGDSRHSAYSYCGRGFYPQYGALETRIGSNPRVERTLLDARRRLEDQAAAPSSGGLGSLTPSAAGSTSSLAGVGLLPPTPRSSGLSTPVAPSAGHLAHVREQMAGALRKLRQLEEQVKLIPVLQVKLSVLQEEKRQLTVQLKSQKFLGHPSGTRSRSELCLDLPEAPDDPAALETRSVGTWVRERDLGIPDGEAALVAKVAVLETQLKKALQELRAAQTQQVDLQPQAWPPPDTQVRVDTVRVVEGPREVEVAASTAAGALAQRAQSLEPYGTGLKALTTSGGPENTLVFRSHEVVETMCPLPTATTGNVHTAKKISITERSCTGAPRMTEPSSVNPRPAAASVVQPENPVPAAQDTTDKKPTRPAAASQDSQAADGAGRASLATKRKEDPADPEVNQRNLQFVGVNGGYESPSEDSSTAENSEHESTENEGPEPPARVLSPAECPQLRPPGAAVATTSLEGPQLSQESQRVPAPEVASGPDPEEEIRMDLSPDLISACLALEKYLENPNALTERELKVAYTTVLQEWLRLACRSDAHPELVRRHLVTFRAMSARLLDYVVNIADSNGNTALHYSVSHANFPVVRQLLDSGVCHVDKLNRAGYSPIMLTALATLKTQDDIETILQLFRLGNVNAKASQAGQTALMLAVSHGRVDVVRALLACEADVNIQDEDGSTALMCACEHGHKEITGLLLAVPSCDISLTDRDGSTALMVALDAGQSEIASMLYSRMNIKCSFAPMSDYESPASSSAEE
As to the kind of experiment: pull-down.

Take DPPYSVETPYGYRLDLDFLKYVDDIEKGHTLRRVAVQRRPRLGS (domain or fragment, mouse, UniProt Q8BX02 29-72, looked up) [GST-tagged Kank2-KN (amino acids 29–72)]: in test [1], the binding result is recorded as “binds”.

Consider B1, for which the binding result in test [2] was “binds”.

For the origin of these results see paper PMC6053543 (Nature cell biology, 2016).
